The values below are quoted from earlier work in publication PMC2737186.

For this data set, the target named is Cys1 (UniProt position 252, VVKNKCLAEGT).

For the substance “Mtu RecA intein (form studied by Shingledecker, Jiang and Paulus 2000) (Mycobacterium tuberculosis)”, the pKa is given as 8.2.
